Where “and” joins values, the source holds several entries; their conditions need not be identical. Identical values can stand only once.
Target: TGF-β1 (UniProt P01137 279-390)
Experiment: cell-based or functional assay

TGF-β1, sequence (P01137 279-390 limits assumed): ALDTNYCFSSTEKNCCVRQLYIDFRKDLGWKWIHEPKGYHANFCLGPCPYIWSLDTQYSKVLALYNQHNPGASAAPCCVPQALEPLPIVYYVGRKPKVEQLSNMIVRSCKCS

B1: human recombinant TGFβRII/Fc (Fc fusion, UniProt P37173 23-159, looked up, not shown: a dimerising Fc or GST)
chain: TIPPHVQKSVNNDMIVTDNNGAVKFPQLCKFCDVRFSTCDNQKSCMSNCSITSICEKPQEVCVAVWRKNDENITLETVCHDPKLPYHDFILEDAASPKCIMKEKKKPGETFFMCSCSSDECNDNIIFSEEYNTSNPD
  IC50, HEK-Blue TGF-β cells, 0.1 nM TGF-β1: 470 pM
  IC50, HEK-Blue TGFβ reporter cells, 0.1 nM TGFβ1: 461 pM and 559 pM
  fold lower TGF-β1 blocking activity than TGFRt15-TGFRs or TGFRt15*-TGFRs: ~10 fold

From patent publication US20250011380A1 (published 2025)
